# Test results reported in US20160304615A1 (Regeneron, published 2016).
# B1: H1H2195P (antibody, human IgG1, V domains shown)
# VH: QVQLVESGGGVVQPGRSRRLSCVGSGFIFSSYGMHWVRQAPGKGLEWVALIFYDGSNEYYVDSVKGRFTISRDNSKNTLYLQMNSLRAEDTAVYYCAREGYSQRYKYYFGMDVWGQGTTVTVSS
# VL: DIQMTQSPSSVSASVGDRVTITCRASQGISSWLAWYQQQPGKAPKLLIYAASSLQSGVPSRFSGSGSGTDFTLTISSLQPEDFATYYCQQTNSFPLTFGGGTKVEIKR
# notes: Human IgG1 Fc; also called H1H2195N
# B2: H1H2194P (antibody, human IgG1, V domains shown)
# VH: QVQLVQSGAEVKKPGASVKVSCKASGYTFTSYDINWVRQATGQGLEWMGWINPNSDYTGYVQKFQGRVTMTRDTSISTAYMELSSLRSEDTAVYYCATSRWSEHFHHWGQGTLVTVSS
# VL: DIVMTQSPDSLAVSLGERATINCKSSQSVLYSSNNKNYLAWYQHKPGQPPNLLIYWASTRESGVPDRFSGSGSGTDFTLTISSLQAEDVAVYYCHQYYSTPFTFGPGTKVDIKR
# notes: Human IgG1 Fc; also called H1H2194N
# B3: H1H1863N2(Fuc-) (antibody, human IgG1, V domains shown)
# VH: EVQLVESGGGLVQPGGSLRLSCAASGFPFSSYDMHWVRQATGKGLEWVSAIGTAGATYYPGSVKGRFTISRENAKNSLYLQMNSLRAGDTAVYYCARGDYVWGTYRPLFDYWGQGTLVTVSS
# VL: DIQLTQSPSFLSASVGDRVTITCWASQGINNYLAWYQQKPGKAPKLLIYAASTLQTGVPSRFSGSGSGTEFTLTISSLQPEDFATYYCQQLNSYPLTFGGGTKVEIK
# notes: Human IgG1; also called H1H1863N2 with reduced fucosylation; H1H1862N2 (Fuc-)
# B4: H1H1911N (antibody, human IgG1, V domains shown)
# VH: QVQLVESGGGVVQPGRSLRLSCAASGFTFSRYGIHWVRQAPGKGLEWVAVIWHDGSNKYYADSVKGRFTISRDNSKNTLYLQMTSLRAEDTAVYYCARDGLEIRDHYYYGMDVWGQGTTVTVSS
# VL: DIQMTQSPSTLSASVGDRVTITCRASQSTSSWLAWYQQKPGKAPTLLIYKASSLESGVPSKFSGSGSGTEFTLTISSLQPDDFATYYCQQYNRYSRTFGQGTKVEIK
# notes: Human IgG1 Fc; also called H2M1911N (same variable domains)
# Columns and labels:
# [1] = molecular target: T1, wild-type human EGFR on cells (human, UniProt P00533 25-1210); assay: FACS, A431 cells, PE secondary antibody
# T1 construct: Stands for transfected HEK293/hEGFRwt, endogenous EGFR of A431 and of parental HEK293 cells, and human EGFR of hEGFR mice; the cell line is named under assay; also called EGFRwt; hEGFRwt
# Experimental: (§1) To determine the specificity of the anti-EGFRvIII mAbs, their binding to HEK293, HEK293 cells expressing EGFRvIII (HEK293/EGFRvIII) and A431 cells, was analyzed by fluorescence activated cell sorting (FACS). HEK293/EGFRvIII cells were prepared by transfecting HEK293 cells with neomycin resistant DNA vectors constitutively expressing full-length hEGFRvIII (SEQ ID NO:147) using LIPOFECTAMINE™ 2000 transfection reagent (INVITROGEN™). At two days post-transfection, cells were placed under G418 selection for approximately two weeks. Populations positively expressing EGFRvIII were isolated via fluorescence activated cell sorting (FACS). The HEK293 cells expressing ˜3×10⁶ copies of EGFRvIII per cell were used in the experiment. […] In another set of experiment, anti-EGFRvIII antibodies were directly conjugated via their lysine residues with the fluorescent dye, ALEXA FLUOR® 488 Dye (INVITROGEN™), thereby eliminating the step using the secondary antibody. […] Controls I, II, III, IV and V are described above. MFI: Mean Fluorescence Intensity.
# EGFR-mFc [2] = molecular target: T2, EGFR-mFc (human); assay: SPR 37C, receptor-capture
# T2 construct: Soluble dimeric protein
# Experimental: (§2) Measurements were conducted on a T100 BIACORE™ instrument. […] In the receptor-capture format, either EGFRvIII-mFc or EGFR-mFc, was captured on the BIACORE™ chip and the respective antibodies flowed over. Kinetic association (kₐ) and dissociation (kd) rate constants were determined by processing and fitting the data to a 1:1 binding model using Scrubber 2.0 curve fitting software. Binding dissociation equilibrium constants (KD) and dissociative half-lives (t_{1/2}) were calculated from the kinetic rate constants as: KD (M)=kd/kₐ; and t₁₁₂ (min)=ln2/(60*kd).
# EGFRvIII-mFc [3] = molecular target: T3, EGFRvIII-mFc (human); assay: SPR 37C, receptor-capture
# T3 construct: Soluble dimeric protein
# Experimental: as §2
# EGFR-mmh [4] = molecular target: T4, EGFR-mmh (human, UniProt P00533 25-647, limits assumed); assay: ELISA
# T4 construct: Soluble monomeric protein; also called hEGFR-mmh
# From the text: (§3) To further characterize anti-hEGFRvIII mAbs, their binding specificity was examined by ELISA. […] Also, coated was an irrelevant peptide (control peptide) with or without biotin at its N-terminal. […] The plates were then washed and bound anti-EGFRvIII mAbs were detected with anti-human Fc antibodies conjugated with horse-radish peroxidase (HRP). […] Data analysis used a sigmoidal dose-response model within PRISM™ software.
# EGFRvIII-mmh [5] = molecular target: T5, EGFRvIII-mmh (human, UniProt P00533 298-647, limits assumed); assay: ELISA
# T5 construct: Soluble monomeric protein; also called hEGFRvIII-mmh; hEGFRvIII.mmh
# From the text: as §3
# EGFR-mFc [6] = molecular target: T2, EGFR-mFc; assay: SPR 37C, mAb-capture
# EGFR-mmh [7] = molecular target: T4, EGFR-mmh; assay: SPR 37C, mAb-capture
# EGFRvIII-mFc [8] = molecular target: T3, EGFRvIII-mFc; assay: SPR 37C, mAb-capture
# EGFRvIII-mmh [9] = molecular target: T5, EGFRvIII-mmh; assay: SPR 37C, mAb-capture
# [10] = molecular target: T6, full-length hEGFRvIII on cells (human, UniProt P00533 298-1210); assay: FACS, HEK293/EGFRvIII cells, PE secondary antibody
# T6 construct: Expressed from vectors in HEK293, U87, B16F10.9, U251 and MMT 060562 cells; also called HEK293/EGFRvIII; HEK293/hEGFRvIII
# Experimental: as §1
# [11] = molecular target: T7, C-terminal biotin-labeled EGFR311-326 peptide (human, biotin at the C-terminus); assay: BLI (Octet RED), biotinylated peptide on streptavidin tips
# T7 peptide: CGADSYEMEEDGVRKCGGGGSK
# Experimental: After peptide capture, the coated tips were placed in 1 μM solutions of antibody and the binding responses were recorded (see FIG. 2). Controls I-III are the same as those described above.
# [12] = molecular target: T1, wild-type human EGFR on cells; assay: FACS, A431 cells, directly labeled antibody
# Experimental: as §1
# EGFRvIII-mmh [13] = molecular target: T5, EGFRvIII-mmh; assay: ELISA; ELISA, 25 C, EGFRvIII-mmh coated on the plate
# From the text: as §3
# [14] = molecular target: T6, full-length hEGFRvIII on cells; assay: cell-based or functional assay
# EGFR-mmh [15] = molecular target: T4, EGFR-mmh; assay: ELISA; ELISA, 25 C, EGFR-mmh coated on the plate
# From the text: as §3
# EGFRvIII-mFc [16] = molecular target: T3, EGFRvIII-mFc; assay: SPR 37C, receptor-capture; 37 C, receptor-capture format (EGFRvIII-mFc captured)
# Experimental: as §2
# [17] = molecular target: T6, full-length hEGFRvIII on cells; assay: FACS, HEK293/EGFRvIII cells, directly labeled antibody
# Experimental: as §1
# EGFR-mFc [18] = molecular target: T2, EGFR-mFc; assay: SPR 37C, receptor-capture; 37 C, receptor-capture format (EGFR-mFc captured)
# Experimental: as §2
Binder,A431 MFI [1] [MFI],Fold Above Background [1] [fold],Kd (EGFR-mFc [2]) [nM],T½ (EGFR-mFc [2]) [min],koff (EGFR-mFc [2]) [s⁻¹],kon (EGFR-mFc [2]) [M⁻¹ s⁻¹],Kd (EGFRvIII-mFc [3]) [nM],T½ (EGFRvIII-mFc [3]) [min],koff (EGFRvIII-mFc [3]) [s⁻¹],kon (EGFRvIII-mFc [3]) [M⁻¹ s⁻¹],EC50 (EGFR-mmh [4]) [nM],EC50 (EGFRvIII-mmh [5]) [nM],Kd (EGFR-mFc [6]) [nM],T½ (EGFR-mFc [6]) [min],koff (EGFR-mFc [6]) [s⁻¹],kon (EGFR-mFc [6]) [M⁻¹ s⁻¹],Kd (EGFR-mmh [7]) [nM],T½ (EGFR-mmh [7]) [min],HEK293/EGFRvIII MFI [10] [MFI],Ratio (EGFRvIII MFI/parental MFI) [10],other results
B1,2230,1.6,0.231,222,5.2e-05,225000,0.106,456,2.53e-05,237000,0.0052,0.0049,2.05,61,0.000189,92000,9.2,22,13500,11.5,koff (EGFR-mmh [7]): 0.000523 s⁻¹; kon (EGFR-mmh [7]): 56600 M⁻¹ s⁻¹; Kd (EGFRvIII-mFc [8]): 1.1 nM; T½ (EGFRvIII-mFc [8]): 103 min; koff (EGFRvIII-mFc [8]): 0.000113 s⁻¹; kon (EGFRvIII-mFc [8]): 102000 M⁻¹ s⁻¹; Kd (EGFRvIII-mmh [9]): 10.7 nM; T½ (EGFRvIII-mmh [9]): 17 min; koff (EGFRvIII-mmh [9]): 0.000694 s⁻¹; kon (EGFRvIII-mmh [9]): 64800 M⁻¹ s⁻¹
B2,2290,1.6,0.38,163,7.07e-05,187000,0.394,157,7.38e-05,188000,0.0037,0.0032,2.43,58,0.000199,81000,12.6,12,18600,18.9,koff (EGFR-mmh [7]): 0.00096 s⁻¹; kon (EGFR-mmh [7]): 76000 M⁻¹ s⁻¹; Kd (EGFRvIII-mFc [8]): 2.33 nM; T½ (EGFRvIII-mFc [8]): 52 min; koff (EGFRvIII-mFc [8]): 0.000222 s⁻¹; kon (EGFRvIII-mFc [8]): 95400 M⁻¹ s⁻¹; Kd (EGFRvIII-mmh [9]): 17 nM; T½ (EGFRvIII-mmh [9]): 8 min; koff (EGFRvIII-mmh [9]): 0.00137 s⁻¹; kon (EGFRvIII-mmh [9]): 81000 M⁻¹ s⁻¹
B3,,,,,,,,54,,,,,,,,,,,,,binding result [11]: no binding (tested: 1 µM)
B4,3140,2.2,,,,,,,,,,,,,,,,,107000,59.1,"A431 MFI [12]: 16000 MFI; Fold Above Background [12]: 2.4 fold; EC50 (EGFRvIII-mmh [13]): 0.0748 nM; Fluorescent Intensity of vesicles 4° C., Mean [14]: 29800; Fluorescent Intensity of vesicles 37° C., Mean [14]: 280000; EC50 (EGFR-mmh [15]): 9.06 nM; Kd (EGFRvIII-mFc [16]): 19.5 nM; T½ (EGFRvIII-mFc [16]): 18 min; koff (EGFRvIII-mFc [16]): 0.000643 s⁻¹; kon (EGFRvIII-mFc [16]): 32900 M⁻¹ s⁻¹; HEK293/EGFRvIII MFI [17]: 55100 MFI; Ratio (EGFRvIII MFI/parental MFI) [17]: 15.3; Kd (EGFR-mFc [18]): 224 nM; T½ (EGFR-mFc [18]): 7 min; koff (EGFR-mFc [18]): 0.00174 s⁻¹; kon (EGFR-mFc [18]): 7770 M⁻¹ s⁻¹"
